Consider one molecule from paper PMC3733117.

In the data set the target is DNA polymerase beta I260Q (rat, UniProt P06766 1-335, I260Q). In words: X-ray crystallography.

B1: cocrystallization primer/template (dsDNA)
DNA 1: ATGTGAG
DNA 2: CAAACTCACAT
Turning to B1, the binding result is “binds”.
